Experiments:
[1] = molecular target: T1, EV-D68 mature virion, strain US/MO/14-18947 (clade B) (enterovirus D68 strain US/MO/14-18947); assay: BLI
T1 chain 1: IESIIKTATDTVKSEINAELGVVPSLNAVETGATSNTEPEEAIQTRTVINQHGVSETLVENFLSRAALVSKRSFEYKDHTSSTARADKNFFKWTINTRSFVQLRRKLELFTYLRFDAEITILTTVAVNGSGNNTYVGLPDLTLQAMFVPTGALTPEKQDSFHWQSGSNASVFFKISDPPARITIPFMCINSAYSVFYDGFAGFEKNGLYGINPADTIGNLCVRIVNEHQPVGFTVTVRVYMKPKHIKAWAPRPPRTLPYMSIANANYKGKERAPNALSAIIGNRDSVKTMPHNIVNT
T1 chain 2: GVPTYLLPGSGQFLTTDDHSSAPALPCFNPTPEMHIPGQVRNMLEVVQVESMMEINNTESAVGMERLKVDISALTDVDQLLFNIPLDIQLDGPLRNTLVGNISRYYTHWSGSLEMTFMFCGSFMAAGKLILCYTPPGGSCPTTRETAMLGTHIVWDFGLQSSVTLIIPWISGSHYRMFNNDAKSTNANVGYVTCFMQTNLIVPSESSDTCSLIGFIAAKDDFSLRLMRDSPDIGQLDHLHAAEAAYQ
T1 chain 3: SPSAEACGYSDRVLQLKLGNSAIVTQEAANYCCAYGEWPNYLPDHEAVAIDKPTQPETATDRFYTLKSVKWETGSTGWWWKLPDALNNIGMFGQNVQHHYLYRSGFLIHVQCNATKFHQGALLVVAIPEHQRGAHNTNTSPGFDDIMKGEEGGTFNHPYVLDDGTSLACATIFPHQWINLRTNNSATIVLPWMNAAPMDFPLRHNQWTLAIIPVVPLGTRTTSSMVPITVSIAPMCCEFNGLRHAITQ
T1 chain 4: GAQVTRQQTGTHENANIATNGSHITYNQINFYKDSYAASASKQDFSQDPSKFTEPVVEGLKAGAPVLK

[2] = molecular target: T1, EV-D68 mature virion, strain …; assay: BLI

B1: human-mouse chimeric MAb 8F12 (antibody, V domains shown)
VH: QVQLQQPGTELVRPGASVKLSCKASGYSFTSYWMNWVKQRPGQGLEWIGMIHPSDSETRLNQRFKDKATLTVDKSSNTAYMQLSSPTSEDSAVYYCAREGYDYDGFAYWGQGTLVTVSA
VL: QIVLTQSPAAMSASPGEKVTMTCSASSSVIYMYWYQQKPGSSPRLLIYDTSNLASGVPVRFSGSGSGTSYSLTISRMEAEDAATYYCQQWSSFPYTFGGGTKLEIK
In the case of B1, the koff [1] is reported as 0.0044 s⁻¹.

B2: human-mouse chimeric MAb 2H12 (antibody, V domains shown)
VH: QVQLQQPGAELVMPGASVKMSCKASGYTFTDYWMHWVKQRPGQGLEWIGAIDTSDSYTTYNRKFKGKATLTVDESSSTAYMQLISLTSEDSAVYYCARGGGGNSPFAYWGQGTLVTVSA
VL: DIQMTQSPSSLSASLGERVSLTCRASQDIGSSLNWLQQEPDGTIKRLIYATSSLDSGVPKRFSGSRSGSDYSLTISSLESEDFVDYYCLQYASFPLTFGAGTKLELK
With B2 the Kd [2] was 2.9 nM and the koff [1] was 0.00055 s⁻¹.

— paper PMC8131599 (2021)
